Source: publication PMC8166883
pKd: −log10 of the molar value.

What was measured:
[1] = target: FLAG-tagged human vascular endothelial growth factor-A (FLAG-hVEGF-A) (human) (UniProt P15692); experiment: SPR
[2] = target: FLAG-tagged human tumor necrosis factor α (FLAG-hTNFα) (human) (UniProt P01375); experiment: SPR
Chain of FLAG-tagged human tumor necrosis factor α (FLAG-hTNFα) (human) (P01375 whole entry): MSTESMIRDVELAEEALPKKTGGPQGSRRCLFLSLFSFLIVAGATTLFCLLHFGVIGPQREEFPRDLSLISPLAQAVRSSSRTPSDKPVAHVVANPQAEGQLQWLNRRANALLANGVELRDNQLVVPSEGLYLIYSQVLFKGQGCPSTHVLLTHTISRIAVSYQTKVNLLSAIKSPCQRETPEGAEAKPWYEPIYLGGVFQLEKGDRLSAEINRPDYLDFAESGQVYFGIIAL

Chain of FLAG-tagged human vascular endothelial growth factor-A (FLAG-hVEGF-A) (human) (P15692 other isoform, or with tags, fused parts or gaps): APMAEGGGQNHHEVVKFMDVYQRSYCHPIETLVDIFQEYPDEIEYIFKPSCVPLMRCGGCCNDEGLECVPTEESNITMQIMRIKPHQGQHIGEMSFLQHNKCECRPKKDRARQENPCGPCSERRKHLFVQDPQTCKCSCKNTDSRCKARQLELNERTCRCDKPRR

| pKd [1] | koff [1] [s⁻¹] | Substance | pKd [2] | koff [2] [s⁻¹] |
| --- | --- | --- | --- | --- |
| 9.47 | 0.000105 | bevacizumab | – | – |
| – | – | adalimumab | 9.39 | 0.00036 |
